Starred links: 1 amine or outer side, 2 acyl side, 3 side chain; linkers in the order of their positions; H or OH if unused. Non-standard residues stand in square brackets, D forms with d. Primed or numbered codes have the meaning given here. *: point of attachment. C20 diacid = O=C(O)CCCCCCCCCCCCCCCCCCC(=O)*; C18 diacid = O=C(O)CCCCCCCCCCCCCCCCC(=O)*; C16 diacid = O=C(O)CCCCCCCCCCCCCCC(=O)*; γGlu = O=C(O)[C@H](CCC(=O)[*:2])N[*:1]; βAsp = O=C(O)[C@H](CC(=O)[*:2])N[*:1]; Hyp = O=C(O)[C@@H]1C[C@@H](O)CN1; Inp′ = not defined here; Trx′ = not defined here; AEEA = NCCOCCOCC(=O)O
T1: human amylin receptor (AMY3) on CHO-K1/Ga15/AMY3 amylin receptor/CRE-luc cells (human, UniProt P30988 25-474; O60896 24-148)
T1 sequence (looked up) 1: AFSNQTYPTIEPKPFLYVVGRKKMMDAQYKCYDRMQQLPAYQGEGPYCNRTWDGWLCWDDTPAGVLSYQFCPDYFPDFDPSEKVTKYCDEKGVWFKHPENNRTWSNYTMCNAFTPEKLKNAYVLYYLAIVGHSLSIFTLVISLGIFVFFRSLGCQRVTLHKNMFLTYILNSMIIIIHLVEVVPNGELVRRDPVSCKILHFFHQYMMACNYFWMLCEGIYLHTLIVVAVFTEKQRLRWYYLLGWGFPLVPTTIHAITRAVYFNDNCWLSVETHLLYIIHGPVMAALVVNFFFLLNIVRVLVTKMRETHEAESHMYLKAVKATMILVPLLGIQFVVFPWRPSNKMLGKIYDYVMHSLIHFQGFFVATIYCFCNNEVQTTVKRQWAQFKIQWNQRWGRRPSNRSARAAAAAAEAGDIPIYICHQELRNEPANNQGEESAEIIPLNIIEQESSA
T1 sequence (looked up) 2: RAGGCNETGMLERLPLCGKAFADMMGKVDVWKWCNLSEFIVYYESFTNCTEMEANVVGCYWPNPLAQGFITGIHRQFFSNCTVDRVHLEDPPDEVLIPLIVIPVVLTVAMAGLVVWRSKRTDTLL


Molecular target: T1, human amylin receptor (AMY3) on …
Test: cell-based or functional assay

| Binder | EC50/nM, CRE-luciferase reporter in amylin receptor/CRE-luc CHO cells [nM] | Relative activity (the EC50 ratio of Cagrilintide to the compound) [%] |
| --- | --- | --- |
| {C20 diacid-γGlu}-ASQLSTAVLGRLADFLRHSSNNLKPILPPTNVGSNT[Hyp]-NH2 (SMILES CC[C@H](C)[C@H](NC(=O)[C@@H]1CCCN1C(=O)[C@H](CCCCN)NC(=O)[C@H](CC(C)C)NC(=O)[C@H](CC(N)=O)NC(=O)[C@H](CC(N)=O)NC(=O)[C@H](CO)NC(=O)[C@H](CO)NC(=O)[C@H](Cc1c[nH]cn1)NC(=O)[C@H](CCCNC(=N)N)NC(=O)[C@H](CC(C)C)NC(=O)[C@H](Cc1ccccc1)NC(=O)[C@H](CC(=O)O)NC(=O)[C@H](C)NC(=O)[C@H](CC(C)C)NC(=O)[C@H](CCCNC(=N)N)NC(=O)CNC(=O)[C@H](CC(C)C)NC(=O)[C@@H](NC(=O)[C@H](C)NC(=O)[C@@H](NC(=O)[C@H](CO)NC(=O)[C@H](CC(C)C)NC(=O)[C@H](CCC(N)=O)NC(=O)[C@H](CO)NC(=O)[C@H](C)NC(=O)CC[C@H](NC(=O)CCCCCCCCCCCCCCCCCCC(=O)O)C(=O)O)[C@@H](C)O)C(C)C)C(=O)N[C@@H](CC(C)C)C(=O)N1CCC[C@H]1C(=O)N1CCC[C@H]1C(=O)N[C@H](C(=O)N[C@@H](CC(N)=O)C(=O)N[C@H](C(=O)NCC(=O)N[C@@H](CO)C(=O)N[C@@H](CC(N)=O)C(=O)N[C@H](C(=O)N1C[C@H](O)C[C@H]1C(N)=O)[C@@H](C)O)C(C)C)[C@@H](C)O) [polypeptide derivative M2] | 0.038 | 68 |
| {C20 diacid}-E[AEEA][AEEA]ASQLSTAATQRLADFLRHFTDRDRDILPPTNVGSNTP-NH2 (SMILES CC[C@H](C)[C@H](NC(=O)[C@H](CC(=O)O)NC(=O)[C@H](CCCNC(=N)N)NC(=O)[C@H](CC(=O)O)NC(=O)[C@H](CCCNC(=N)N)NC(=O)[C@H](CC(=O)O)NC(=O)[C@@H](NC(=O)[C@H](Cc1ccccc1)NC(=O)[C@H](Cc1c[nH]cn1)NC(=O)[C@H](CCCNC(=N)N)NC(=O)[C@H](CC(C)C)NC(=O)[C@H](Cc1ccccc1)NC(=O)[C@H](CC(=O)O)NC(=O)[C@H](C)NC(=O)[C@H](CC(C)C)NC(=O)[C@H](CCCNC(=N)N)NC(=O)[C@H](CCC(N)=O)NC(=O)[C@@H](NC(=O)[C@H](C)NC(=O)[C@H](C)NC(=O)[C@@H](NC(=O)[C@H](CO)NC(=O)[C@H](CC(C)C)NC(=O)[C@H](CCC(N)=O)NC(=O)[C@H](CO)NC(=O)[C@H](C)NC(=O)COCCOCCNC(=O)COCCOCCNC(=O)[C@H](CCC(=O)O)NC(=O)CCCCCCCCCCCCCCCCCCC(=O)O)[C@@H](C)O)[C@@H](C)O)[C@@H](C)O)C(=O)N[C@@H](CC(C)C)C(=O)N1CCC[C@H]1C(=O)N1CCC[C@H]1C(=O)N[C@H](C(=O)N[C@@H](CC(N)=O)C(=O)N[C@H](C(=O)NCC(=O)N[C@@H](CO)C(=O)N[C@@H](CC(N)=O)C(=O)N[C@H](C(=O)N1CCC[C@H]1C(N)=O)[C@@H](C)O)C(C)C)[C@@H](C)O) [polypeptide derivative M17] | 0.026 | 94 |
| {C20 diacid-βAsp-AEEA-AEEA}-ASQLSTAATQRLADFLRHFTDRDRDILPPTNVGSNTP-NH2 (SMILES CC[C@H](C)[C@H](NC(=O)[C@H](CC(=O)O)NC(=O)[C@H](CCCNC(=N)N)NC(=O)[C@H](CC(=O)O)NC(=O)[C@H](CCCNC(=N)N)NC(=O)[C@H](CC(=O)O)NC(=O)[C@@H](NC(=O)[C@H](Cc1ccccc1)NC(=O)[C@H](Cc1c[nH]cn1)NC(=O)[C@H](CCCNC(=N)N)NC(=O)[C@H](CC(C)C)NC(=O)[C@H](Cc1ccccc1)NC(=O)[C@H](CC(=O)O)NC(=O)[C@H](C)NC(=O)[C@H](CC(C)C)NC(=O)[C@H](CCCNC(=N)N)NC(=O)[C@H](CCC(N)=O)NC(=O)[C@@H](NC(=O)[C@H](C)NC(=O)[C@H](C)NC(=O)[C@@H](NC(=O)[C@H](CO)NC(=O)[C@H](CC(C)C)NC(=O)[C@H](CCC(N)=O)NC(=O)[C@H](CO)NC(=O)[C@H](C)NC(=O)COCCOCCNC(=O)COCCOCCNC(=O)C[C@H](NC(=O)CCCCCCCCCCCCCCCCCCC(=O)O)C(=O)O)[C@@H](C)O)[C@@H](C)O)[C@@H](C)O)C(=O)N[C@@H](CC(C)C)C(=O)N1CCC[C@H]1C(=O)N1CCC[C@H]1C(=O)N[C@H](C(=O)N[C@@H](CC(N)=O)C(=O)N[C@H](C(=O)NCC(=O)N[C@@H](CO)C(=O)N[C@@H](CC(N)=O)C(=O)N[C@H](C(=O)N1CCC[C@H]1C(N)=O)[C@@H](C)O)C(C)C)[C@@H](C)O) [polypeptide derivative M18] | 0.026 | 110 |
| {C20 diacid}-D[AEEA][AEEA]ASQLSTAATQRLADFLRHFTDRDRDILPPTNVGSNTP-NH2 (SMILES CC[C@H](C)[C@H](NC(=O)[C@H](CC(=O)O)NC(=O)[C@H](CCCNC(=N)N)NC(=O)[C@H](CC(=O)O)NC(=O)[C@H](CCCNC(=N)N)NC(=O)[C@H](CC(=O)O)NC(=O)[C@@H](NC(=O)[C@H](Cc1ccccc1)NC(=O)[C@H](Cc1c[nH]cn1)NC(=O)[C@H](CCCNC(=N)N)NC(=O)[C@H](CC(C)C)NC(=O)[C@H](Cc1ccccc1)NC(=O)[C@H](CC(=O)O)NC(=O)[C@H](C)NC(=O)[C@H](CC(C)C)NC(=O)[C@H](CCCNC(=N)N)NC(=O)[C@H](CCC(N)=O)NC(=O)[C@@H](NC(=O)[C@H](C)NC(=O)[C@H](C)NC(=O)[C@@H](NC(=O)[C@H](CO)NC(=O)[C@H](CC(C)C)NC(=O)[C@H](CCC(N)=O)NC(=O)[C@H](CO)NC(=O)[C@H](C)NC(=O)COCCOCCNC(=O)COCCOCCNC(=O)[C@H](CC(=O)O)NC(=O)CCCCCCCCCCCCCCCCCCC(=O)O)[C@@H](C)O)[C@@H](C)O)[C@@H](C)O)C(=O)N[C@@H](CC(C)C)C(=O)N1CCC[C@H]1C(=O)N1CCC[C@H]1C(=O)N[C@H](C(=O)N[C@@H](CC(N)=O)C(=O)N[C@H](C(=O)NCC(=O)N[C@@H](CO)C(=O)N[C@@H](CC(N)=O)C(=O)N[C@H](C(=O)N1CCC[C@H]1C(N)=O)[C@@H](C)O)C(C)C)[C@@H](C)O) [polypeptide derivative M19] | 0.036 | 80 |
| {C20 diacid-Trx′-AEEA-AEEA}-ASQLSTAATQRLADFLRHFTDRDRDILPPTNVGSNTP-NH2 (reading uncertain) [polypeptide derivative M20] | 0.017 | 171 |
| {C20 diacid-Inp′-AEEA-AEEA}-ASQLSTAATQRLADFLRHFTDRDRDILPPTNVGSNTP-NH2 [polypeptide derivative M21] | 0.023 | 126 |
| {C18 diacid-γGlu}-ASQLSTAATQRLADFLRHFTDRDRDILPPTNVGSNTP-NH2 (SMILES CC[C@H](C)[C@H](NC(=O)[C@H](CC(=O)O)NC(=O)[C@H](CCCNC(=N)N)NC(=O)[C@H](CC(=O)O)NC(=O)[C@H](CCCNC(=N)N)NC(=O)[C@H](CC(=O)O)NC(=O)[C@@H](NC(=O)[C@H](Cc1ccccc1)NC(=O)[C@H](Cc1c[nH]cn1)NC(=O)[C@H](CCCNC(=N)N)NC(=O)[C@H](CC(C)C)NC(=O)[C@H](Cc1ccccc1)NC(=O)[C@H](CC(=O)O)NC(=O)[C@H](C)NC(=O)[C@H](CC(C)C)NC(=O)[C@H](CCCNC(=N)N)NC(=O)[C@H](CCC(N)=O)NC(=O)[C@@H](NC(=O)[C@H](C)NC(=O)[C@H](C)NC(=O)[C@@H](NC(=O)[C@H](CO)NC(=O)[C@H](CC(C)C)NC(=O)[C@H](CCC(N)=O)NC(=O)[C@H](CO)NC(=O)[C@H](C)NC(=O)CC[C@H](NC(=O)CCCCCCCCCCCCCCCCC(=O)O)C(=O)O)[C@@H](C)O)[C@@H](C)O)[C@@H](C)O)C(=O)N[C@@H](CC(C)C)C(=O)N1CCC[C@H]1C(=O)N1CCC[C@H]1C(=O)N[C@H](C(=O)N[C@@H](CC(N)=O)C(=O)N[C@H](C(=O)NCC(=O)N[C@@H](CO)C(=O)N[C@@H](CC(N)=O)C(=O)N[C@H](C(=O)N1CCC[C@H]1C(N)=O)[C@@H](C)O)C(C)C)[C@@H](C)O) [polypeptide derivative M22] | 0.016 | 198 |
| {C16 diacid-γGlu}-ASQLSTAATQRLADFLRHFTDRDRDILPPTNVGSNTP-NH2 (SMILES CC[C@H](C)[C@H](NC(=O)[C@H](CC(=O)O)NC(=O)[C@H](CCCNC(=N)N)NC(=O)[C@H](CC(=O)O)NC(=O)[C@H](CCCNC(=N)N)NC(=O)[C@H](CC(=O)O)NC(=O)[C@@H](NC(=O)[C@H](Cc1ccccc1)NC(=O)[C@H](Cc1c[nH]cn1)NC(=O)[C@H](CCCNC(=N)N)NC(=O)[C@H](CC(C)C)NC(=O)[C@H](Cc1ccccc1)NC(=O)[C@H](CC(=O)O)NC(=O)[C@H](C)NC(=O)[C@H](CC(C)C)NC(=O)[C@H](CCCNC(=N)N)NC(=O)[C@H](CCC(N)=O)NC(=O)[C@@H](NC(=O)[C@H](C)NC(=O)[C@H](C)NC(=O)[C@@H](NC(=O)[C@H](CO)NC(=O)[C@H](CC(C)C)NC(=O)[C@H](CCC(N)=O)NC(=O)[C@H](CO)NC(=O)[C@H](C)NC(=O)CC[C@H](NC(=O)CCCCCCCCCCCCCCC(=O)O)C(=O)O)[C@@H](C)O)[C@@H](C)O)[C@@H](C)O)C(=O)N[C@@H](CC(C)C)C(=O)N1CCC[C@H]1C(=O)N1CCC[C@H]1C(=O)N[C@H](C(=O)N[C@@H](CC(N)=O)C(=O)N[C@H](C(=O)NCC(=O)N[C@@H](CO)C(=O)N[C@@H](CC(N)=O)C(=O)N[C@H](C(=O)N1CCC[C@H]1C(N)=O)[C@@H](C)O)C(C)C)[C@@H](C)O) [polypeptide derivative M23] | 0.017 | 182 |

— patent EP4663654A1 (Hangzhou Sciwind Biosciences Co., Ltd., dated 2025)
